This note sets out measurements from patent US20260097113A1 (Pfizer, published 2026).

Assay [1] deals with RSV A + RSV B bivalent composition (RSV subtype A; RSV subtype B). The experiment in a line: AM14 Fab titration by SEC; Low-Fast cycle; 3 M 2-8°C (second value). (In general: In gel filtration, larger molecules generally elute earlier.)
Assay [2] has the same target. Put plainly: AM14 Fab titration by SEC; High-Slow 1 cycle; 1 M 2-8°C.
Assay [3] has the same target. Put plainly: AM14 Fab titration by SEC; High-Slow 1 cycle; 3 M 2-8°C.
Assay [4] has the same target. The experiment in a line: AM14 Fab titration by SEC; Low-Fast cycle; 3 M 25°C (second value).
Assay [5] shares this target. Put plainly: AM14 Fab titration by SEC; Low-Fast cycle; 1 M 25°C.
For assay [6] the target is unchanged. Put plainly: AM14 Fab titration by SEC; composition of Table 14; Target lyophilization cycle, T0.
For assay [7] the target is unchanged. Put plainly: AM14 Fab titration by SEC; composition of Table 14; Annealing Ramp Aggressive cycle.
Assay [8] shares this target. Put plainly: AM14 Fab titration by SEC; Target cycle; 3 M 25°C.
Assay [9] concerns the target T1, RSV F protein of subtype A comprising a polypeptide of SEQ ID NO: 1 and a polypeptide of SEQ ID NO: 2 (RSV subtype A, UniProt P11209 137-513; P03420 26-109).
T1 construct: Stabilized prefusion F trimer made of three F2-F1 heterodimers; Produced recombinantly in CHO cells; also called RSV A; RSVA
T1 chain 1: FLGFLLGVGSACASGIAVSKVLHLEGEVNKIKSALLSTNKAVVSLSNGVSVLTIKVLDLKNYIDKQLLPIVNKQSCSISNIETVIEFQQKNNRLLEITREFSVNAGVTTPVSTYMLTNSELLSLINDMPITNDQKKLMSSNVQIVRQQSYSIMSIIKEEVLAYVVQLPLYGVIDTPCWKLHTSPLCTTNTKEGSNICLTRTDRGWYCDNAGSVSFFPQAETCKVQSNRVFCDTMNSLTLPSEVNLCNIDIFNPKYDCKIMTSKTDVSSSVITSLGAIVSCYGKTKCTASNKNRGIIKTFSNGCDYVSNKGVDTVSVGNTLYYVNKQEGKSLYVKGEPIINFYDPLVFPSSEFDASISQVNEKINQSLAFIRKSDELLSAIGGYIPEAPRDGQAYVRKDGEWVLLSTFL
T1 chain 2: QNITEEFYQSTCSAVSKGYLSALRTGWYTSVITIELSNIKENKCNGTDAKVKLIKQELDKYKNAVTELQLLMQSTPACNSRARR
The experiment in a line: AM14 ELISA; F5 (pH 6, 100 mM NaCl, 9.0% sucrose); 1 wk 25°C. Background: An ELISA detects its analyte on a solid surface through an enzyme-linked reagent.

The target of assay [10] is T1, RSV F protein of subtype A comprising a …. Put plainly: AM14 ELISA; F11 (pH 7, 50 mM NaCl, 9.0% sucrose); T0.
Assay [11] has the same target. Put plainly: AM14 ELISA; F10 (pH 7, 50 mM NaCl, 4.5% sucrose); 2 wk 5°C.
For assay [12] the target is unchanged. The experiment in a line: AM14 ELISA; F13 (pH 7, 100 mM NaCl, 4.5% sucrose); 1 wk 5°C.
The target is the same in assay [13]. The experiment in a line: AM14 ELISA; F2 (pH 8, 0 mM NaCl, 0% sucrose); 1 wk 25°C.
Assay [14] shares this target. The experiment in a line: AM14 ELISA; F6 (pH 7, 0 mM NaCl, 4.5% sucrose); 2 wk 25°C.
Assay [15] has the same target. The experiment in a line: AM14 ELISA; F1 (pH 8, 100 mM NaCl, 0% sucrose); T0.
Assay [16] shares this target. Put plainly: AM14 ELISA; F18 (pH 7, 50 mM NaCl, 3% sucrose + 3% mannitol); 2 wk 5°C.
Assay [17] shares this target. Put plainly: AM14 ELISA; F6 (pH 7, 0 mM NaCl, 4.5% sucrose); T0.
The target is the same in assay [18]. Put plainly: AM14 ELISA; F15 (pH 6, 0 mM NaCl, 9% sucrose); T0.

Consider AM14 Fab, for which the Prefusion Content (%) in [1] turned out to be 59%; in assay [2], 52%; in assay [3], 49%; in [4], 68%; in assay [5], 63%; in assay [6], 80%. Also, the Prefusion Content (%) in [7] is 81%; in assay [8], 71%.

B1: AM14 (trimeric prefusion specific antibody of the AM14 ELISA) (antibody, V domains shown)
VH: EVQLVESGGGVVQPGRSLRLSCAASGFSFSHYAMHWVRQAPGKGLEWVAVISYDGENTYYADSVKGRFSISRDNSKNTVSLQMNSLRPEDTALYYCARDRIVDDYYYYGMDVWGQGATVTVSS
VL: DIQMTQSPSSLSASVGDRVTITCQASQDIKKYLNWYHQKPGKVPELLMHDASNLETGVPSRFSGRGSGTDFTLTISSLQPEDIGTYYCQQYDNLPPLTFGGGTKVEIKR
notes: Antibody as used in the AM14 ELISA, detected with an HRP-labeled secondary antibody
Regarding B1, the “AM14 prefusion content (%), relative to standard” value was found to be 97% in [9]; 102% in assay [10]; 71% in [11]; 76% in assay [12]; 58% in [13]; 83% in assay [14]. For the same molecule, the “AM14 prefusion content (%), relative to standard” value in assay [15] came to 120%; in [16] it was 85%; in assay [17], 99%; in assay [18], 106%.
